Laboratory results taken from patent US20140241984A1 (UNITED ARAB EMIRATES UNIVERSITY, published 2014).

T1: α-synuclein peptide 17 (113-126) (human)
T1 construct: also called Peptide No. 17
T1 peptide: LEDMPVDPDNEAYE

T2: α-synuclein peptide 2 (8-21) (human)
T2 construct: also called Peptide No. 2
T2 peptide: LSKAKEGVVAAAEK

T3: α-synuclein peptide 7 (43-56) (human)
T3 construct: also called Peptide No. 7
T3 peptide: KTKEGVVHGVATVA

T4: α-synuclein peptide 15 (99-112) (human)
T4 construct: also called Peptide No. 15
T4 peptide: QLGKNEEGAPQEGI

T5: α-synuclein peptide 16 (106-119) (human)
T5 construct: also called Peptide No. 16
T5 peptide: GAPQEGILEDMPVD

T6: α-synuclein peptide 13 (85-98) (human)
T6 construct: also called Peptide No. 13
T6 peptide: AGSIAAATGFVKKD

T7: α-synuclein peptide 8 (50-63) (human)
T7 construct: also called Peptide No. 8
T7 peptide: HGVATVAEKTKEQV

T8: α-synuclein peptide 10 (64-77) (human)
T8 construct: also called Peptide No. 10
T8 peptide: TNVGGAVVTGVTAV

T9: α-synuclein peptide 12 (78-91) (human)
T9 construct: also called Peptide No. 12
T9 peptide: AQKTVEGAGSIAAA

T10: α-synuclein peptide 1 (1-14) (human)
T10 construct: also called Peptide No. 1
T10 peptide: MDVFMKGLSKAKEG

T11: α-synuclein peptide 11 (71-84) (human)
T11 construct: also called Peptide No. 11
T11 peptide: VTGVTAVAQKTVEG

T12: α-synuclein peptide 3 (15-28) (human)
T12 construct: also called Peptide No. 3
T12 peptide: VVAAAEKTKQGVAE

T13: α-synuclein peptide 6 (36-49) (human)
T13 construct: also called Peptide No. 6
T13 peptide: GVLYVGSKTKEGVV

T14: α-synuclein peptide 18 (120-133) (human)
T14 construct: also called Peptide No. 18
T14 peptide: PDNEAYEMPSEEGY

T15: α-synuclein peptide 14 (92-105) (human)
T15 construct: also called Peptide No. 14
T15 peptide: TGFVKKDQLGKNEE

T16: α-synuclein peptide 9 (57-70) (human)
T16 construct: also called Peptide No. 9
T16 peptide: EKTKEQVTNVGGAV

T17: IAPP monomers (UniProt P10997 34-70)
T17 peptide (looked up): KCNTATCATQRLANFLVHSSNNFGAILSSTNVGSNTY

T18: fibrils of NAC (61-78) (human)
T18 construct: also called NAC (61-78) (F)
T18 peptide: EQVTNVGGAVVTGVTAVA

T19: IAPP fibrils (UniProt P10997 34-70)
T19 construct: Amyloid fibrils of IAPP spotted in the dot blot; also called islet amyloid polypeptide
T19 peptide (looked up): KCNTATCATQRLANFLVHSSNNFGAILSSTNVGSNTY


How the values were obtained:
[1] = target: T1, α-synuclein peptide 17 (113-126); assay: pepscan ELISA
Procedure: (§1) To confirm the pepscan results using dot blot the mAbs were also tested by Pepscan using ELISA. […] The plate was washed with PBST and 50 μl of substrate (SuperSignal ELISA Femto Maximum Sensitivity Substrate, Thermo Scientific) was added and immediately read the plate using Victor X3 microtiter plate reader. After the ELISA signals were measured, the plate was also exposed onto X-ray film to develop the spots.

[2] = target: T2, α-synuclein peptide 2 (8-21); assay: pepscan ELISA
Procedure: as §1

[3] = target: T3, α-synuclein peptide 7 (43-56); assay: pepscan ELISA
Procedure: as §1

[4] = target: T4, α-synuclein peptide 15 (99-112); assay: pepscan ELISA
Procedure: as §1

[5] = target: T5, α-synuclein peptide 16 (106-119); assay: pepscan ELISA
Procedure: as §1

[6] = target: T6, α-synuclein peptide 13 (85-98); assay: pepscan ELISA
Procedure: as §1

[7] = target: T7, α-synuclein peptide 8 (50-63); assay: pepscan ELISA
Procedure: as §1

[8] = target: T8, α-synuclein peptide 10 (64-77); assay: pepscan ELISA
Procedure: as §1

[9] = target: T9, α-synuclein peptide 12 (78-91); assay: pepscan ELISA
Procedure: as §1

[10] = target: T10, α-synuclein peptide 1 (1-14); assay: pepscan ELISA
Procedure: as §1

[11] = target: T11, α-synuclein peptide 11 (71-84); assay: pepscan ELISA
Procedure: as §1

[12] = target: T12, α-synuclein peptide 3 (15-28); assay: pepscan ELISA
Procedure: as §1

[13] = target: T13, α-synuclein peptide 6 (36-49); assay: pepscan ELISA
Procedure: as §1

[14] = target: T14, α-synuclein peptide 18 (120-133); assay: pepscan ELISA
Procedure: as §1

[15] = target: T15, α-synuclein peptide 14 (92-105); assay: pepscan ELISA
Procedure: as §1

[16] = target: T16, α-synuclein peptide 9 (57-70); assay: pepscan ELISA
Procedure: as §1

γ-synuclein monomers = γ-synuclein monomers (UniProt O76070 1-127); assay: dot blot
Chain of γ-synuclein monomers (O76070 whole entry): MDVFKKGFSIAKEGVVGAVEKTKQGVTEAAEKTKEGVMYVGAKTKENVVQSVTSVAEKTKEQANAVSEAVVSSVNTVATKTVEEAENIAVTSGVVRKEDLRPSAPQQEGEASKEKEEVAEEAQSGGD
Procedure: (§2) The membranes were blocked with 5% skimmed milk in PBST (PBS containing 0.05% Tween) and incubated for 1 h at room temperature. […] The membranes were washed and incubated with either 1/20000 diluted goat anti-mouse IgG-HRP (Jackson ImmunoResearch) or 1/10000 diluted goat anti-rabbit IgG-HRP (Jackson Immunoresearch) for 1 h at room temperature. The blots were then developed with Super signal West Pico chemiluminescent substrate.
(§3) C) To test the cross reactivity of our conformational monoclonal antibodies to different fragments of α-synuclein. […] The membranes were washed before incubating with either 1/20000 diluted goat anti-mouse IgG-HRP conjugate (Jackson Immunoresearch) or 1/300000 diluted chicken anti-goat IgG-HRP conjugate (Santa Cruz Biotechnology) for 1 h at room temperature. The blots were then developed with Super signal West Pico chemiluminescent substrate.

A-beta fibrils = target: T20, A-beta fibrils (UniProt P05067 672-713, limits assumed); assay: dot blot
T20 construct: Amyloid fibrils of A-beta spotted in the dot blot; also called β-amyloid
Procedure: as §2, §3

IAPP monomers = target: T17, IAPP monomers; assay: dot blot
Procedure: as §2, §3

fibrils of NAC (61-95) = target: T21, fibrils of NAC (61-95) (human); assay: dot blot
T21 construct: also called NAC region (61-95) (F)
Procedure: as §2, §3

fibrils of NAC (61-78) = target: T18, fibrils of NAC (61-78); assay: dot blot
Procedure: as §2, §3

β-synuclein fibrils = β-synuclein fibrils (UniProt Q16143 1-134); assay: dot blot
Chain of β-synuclein fibrils (Q16143 whole entry): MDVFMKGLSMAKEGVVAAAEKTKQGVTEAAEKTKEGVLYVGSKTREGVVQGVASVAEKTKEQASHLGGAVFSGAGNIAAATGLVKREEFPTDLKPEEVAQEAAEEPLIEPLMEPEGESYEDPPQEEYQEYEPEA
Procedure: as §2, §3

β-synuclein monomers = β-synuclein monomers (UniProt Q16143 1-134); assay: dot blot
Chain of β-synuclein monomers (Q16143 whole entry): as above
Procedure: as §2, §3

IAPP fibrils = target: T19, IAPP fibrils; assay: dot blot
Procedure: as §2, §3

γ-synuclein fibrils = γ-synuclein fibrils (UniProt O76070 1-127); assay: dot blot
Chain of γ-synuclein fibrils (O76070 whole entry): as the sequence (O76070 whole entry) above
Procedure: as §2, §3

A-beta monomers = target: T22, A-beta monomers (UniProt P05067 672-713, limits assumed); assay: dot blot
T22 construct: also called β-amyloid monomers
Procedure: as §2, §3

| binding result (γ-synuclein monomers) | binding result (fibrils of NAC (61-95)) | Binder | binding result [1] | binding result [2] | binding result [3] | binding result [4] | binding result [5] | binding result [6] | binding result [7] | binding result [8] | binding result [9] | binding result [10] | binding result [11] | binding result [12] | binding result [13] | binding result [14] | binding result [15] | binding result [16] | binding result (A-beta fibrils) | binding result (IAPP monomers) | also measured |
| --- | --- | --- | --- | --- | --- | --- | --- | --- | --- | --- | --- | --- | --- | --- | --- | --- | --- | --- | --- | --- | --- |
| no binding (tested: 50 ng spotted) | no binding (tested: 50 ng spotted) | Syn-O1 (antibody, IgG2b, V domains shown, also called mAb Syn-O1) VH: EVQLVESGGGLVQPKGSLKLSCAASGFTFNTYAMHWVRQAPGKGLEWVARIRSKSSNYATYYADSVKDRFTISRDDSQSMLYLQMNNLKTEDTAMYYCVRPLKWYFDVWGTGTTVTVSS VL: QIVLTQSPAILSASPGEKVTMTCSASSTVNYMHWYQQKSGTSPKIWIYDTSKLASGVPARFSGSGSWTSYSLTISSMEAEDAATYYCQQWNSNPPTFGAGTKLELK | no binding (tested: 100 ng/ml antibody, 500 ng/well peptide) | no binding (tested: 100 ng/ml antibody, 500 ng/well peptide) | no binding (tested: 100 ng/ml antibody, 500 ng/well peptide) | no binding (tested: 100 ng/ml antibody, 500 ng/well peptide) | no binding (tested: 100 ng/ml antibody, 500 ng/well peptide) | no binding (tested: 100 ng/ml antibody, 500 ng/well peptide) | no binding (tested: 100 ng/ml antibody, 500 ng/well peptide) | no binding (tested: 100 ng/ml antibody, 500 ng/well peptide) | no binding (tested: 100 ng/ml antibody, 500 ng/well peptide) | no binding (tested: 100 ng/ml antibody, 500 ng/well peptide) | no binding (tested: 100 ng/ml antibody, 500 ng/well peptide) | no binding (tested: 100 ng/ml antibody, 500 ng/well peptide) | no binding (tested: 100 ng/ml antibody, 500 ng/well peptide) | no binding (tested: 100 ng/ml antibody, 500 ng/well peptide) | no binding (tested: 100 ng/ml antibody, 500 ng/well peptide) | no binding (tested: 100 ng/ml antibody, 500 ng/well peptide) | no binding (tested: 50 ng/ml antibody, 50 ng spotted) | no binding (tested: 50 ng/ml antibody, 50 ng spotted) | binding result (fibrils of NAC (61-78)): no binding (tested: 50 ng spotted); binding result (β-synuclein fibrils): no binding (tested: 50 ng spotted); binding result (β-synuclein monomers): no binding (tested: 50 ng spotted); binding result (IAPP fibrils): no binding (tested: 50 ng/ml antibody, 50 ng spotted); binding result (γ-synuclein fibrils): no binding (tested: 50 ng spotted); binding result (A-beta monomers): no binding (tested: 50 ng/ml antibody, 50 ng spotted) |
| no binding (tested: 50 ng spotted) | no binding (tested: 50 ng spotted) | Syn-F1 (antibody, V domains shown, also called mAb Syn-F1) VH: DVQLVESGGDLVQPGGSRKLSCAASGFTFSSFGMHWVRQAPEKGLEWVAYINSGSSTIYYADTVKGRFTISRDNPKNTLFLQMTSLRSEDTAMYYCARGNNPGTGYYYSMDYWGQGTSVTVSS VL: not shown | no binding (tested: 100 ng/ml antibody, 500 ng/well peptide) | no binding (tested: 100 ng/ml antibody, 500 ng/well peptide) | no binding (tested: 100 ng/ml antibody, 500 ng/well peptide) | no binding (tested: 100 ng/ml antibody, 500 ng/well peptide) | no binding (tested: 100 ng/ml antibody, 500 ng/well peptide) | no binding (tested: 100 ng/ml antibody, 500 ng/well peptide) | no binding (tested: 100 ng/ml antibody, 500 ng/well peptide) | no binding (tested: 100 ng/ml antibody, 500 ng/well peptide) | no binding (tested: 100 ng/ml antibody, 500 ng/well peptide) | no binding (tested: 100 ng/ml antibody, 500 ng/well peptide) | no binding (tested: 100 ng/ml antibody, 500 ng/well peptide) | no binding (tested: 100 ng/ml antibody, 500 ng/well peptide) | no binding (tested: 100 ng/ml antibody, 500 ng/well peptide) | no binding (tested: 100 ng/ml antibody, 500 ng/well peptide) | no binding (tested: 100 ng/ml antibody, 500 ng/well peptide) | no binding (tested: 100 ng/ml antibody, 500 ng/well peptide) | no binding (tested: 50 ng/ml antibody, 50 ng spotted) | no binding (tested: 50 ng/ml antibody, 50 ng spotted) | binding result (fibrils of NAC (61-78)): no binding (tested: 50 ng spotted); binding result (β-synuclein fibrils): no binding (tested: 50 ng spotted); binding result (β-synuclein monomers): no binding (tested: 50 ng spotted); binding result (IAPP fibrils): no binding (tested: 50 ng/ml antibody, 50 ng spotted); binding result (γ-synuclein fibrils): no binding (tested: 50 ng spotted); binding result (A-beta monomers): no binding (tested: 50 ng/ml antibody, 50 ng spotted) |
| no binding (tested: 50 ng spotted) | no binding (tested: 50 ng spotted) | Syn-F2 (antibody, IgG2a, V domains shown, also called mAb Syn-F2) VH: DVQLVESGGGLVQPGGSRKLSCAASGFTFSSFGMHWVRQAPEKGLEWVAYISSGSSTIYYADTVKGRFTISRDNPKNTLFLQMTSLRSEDTAMYYCARGNNPGTGYYYAMDYWGQGTSVTVSS VL: not shown | no binding (tested: 100 ng/ml antibody, 500 ng/well peptide) | no binding (tested: 100 ng/ml antibody, 500 ng/well peptide) | no binding (tested: 100 ng/ml antibody, 500 ng/well peptide) | no binding (tested: 100 ng/ml antibody, 500 ng/well peptide) | no binding (tested: 100 ng/ml antibody, 500 ng/well peptide) | no binding (tested: 100 ng/ml antibody, 500 ng/well peptide) | no binding (tested: 100 ng/ml antibody, 500 ng/well peptide) | no binding (tested: 100 ng/ml antibody, 500 ng/well peptide) | no binding (tested: 100 ng/ml antibody, 500 ng/well peptide) | no binding (tested: 100 ng/ml antibody, 500 ng/well peptide) | no binding (tested: 100 ng/ml antibody, 500 ng/well peptide) | no binding (tested: 100 ng/ml antibody, 500 ng/well peptide) | no binding (tested: 100 ng/ml antibody, 500 ng/well peptide) | no binding (tested: 100 ng/ml antibody, 500 ng/well peptide) | no binding (tested: 100 ng/ml antibody, 500 ng/well peptide) | no binding (tested: 100 ng/ml antibody, 500 ng/well peptide) | no binding (tested: 50 ng/ml antibody, 50 ng spotted) | no binding (tested: 50 ng/ml antibody, 50 ng spotted) | binding result (fibrils of NAC (61-78)): no binding (tested: 50 ng spotted); binding result (β-synuclein fibrils): no binding (tested: 50 ng spotted); binding result (β-synuclein monomers): no binding (tested: 50 ng spotted); binding result (IAPP fibrils): no binding (tested: 50 ng/ml antibody, 50 ng spotted); binding result (γ-synuclein fibrils): no binding (tested: 50 ng spotted); binding result (A-beta monomers): no binding (tested: 50 ng/ml antibody, 50 ng spotted) |
